One data set has as its system NCC(=O)O. Kind of data set: purified protein. As to conditions: Na+ primary substrate (S1) binding site, near F259 and I359.
For another data set, the system named is C[C@H](N)C(=O)O. As to the kind of experiment: purified protein. As to conditions: Na+ primary substrate (S1) binding site, W259.

In paper PMC6689989 one finds Km data, which are given here for two substances.

As for LeuT (Aquifex aeolicus VF5), the Km in the data set with NCC(=O)O was 1.2 ± 0.2 µM.

Consider LeuT (Aquifex aeolicus VF5; F259W), for which the Km in the data set with C[C@H](N)C(=O)O is recorded as 3.7 ± 0.9 µM.
